Data from US20160033523A1 (NOVOZYMES BIOPHARMA DK A S, published 2016).

B1: Wild type rhesus monkey serum albumin (ligand)
chain: DTHKSEVAHRFKDLGEEHFKGLVLVAFSQYLQQCPFEEHVKLVNEVTEFAKTCVADESAENCDKSLHTLFGDKLCTVATLRETYGEMADCCAKQEPERNECFLQHKDDNPNLPPLVRPEVDVMCTAFHDNEATFLKKYLYEVARRHPYFYAPELLFFAARYKAAFAECCQAADKAACLLPKLDELRDEGKASSAKQRLKCASLQKFGDRAFKAWAVARLSQKFPKAEFAEVSKLVTDLTKVHTECCHGDLLECADDRADLAKYMCENQDSISSKLKECCDKPLLEKSHCLAEVENDEMPADLPSLAADYVESKDVCKNYAEAKDVFLGMFLYEYARRHPDYSVMLLLRLAKAYEATLEKCCAAADPHECYAKVFDEFQPLVEEPQNLVKQNCELFEQLGEYKFQNALLVRYTKKVPQVSTPTLVEVSRNLGKVGAKCCKLPEAKRMPCAEDYLSVVLNRLCVLHEKTPVSEKVTKCCTESLVNRRPCFSALELDEAYVPKAFNAETFTFHADMCTLSEKEKQVKKQTALVELVKHKPKATKEQLKGVMDNFAAFVEKCCKADDKEACFAEEGPKFVAASQAALA
notes: also called rmSA; rmSA Wt
B2: Wild type dog serum albumin (ligand)
chain: EAYKSEIAHRYNDLGEEHFRGLVLVAFSQYLQQCPFEDHVKLAKEVTEFAKACAAEESGANCDKSLHTLFGDKLCTVASLRDKYGDMADCCEKQEPDRNECFLAHKDDNPGFPPLVAPEPDALCAAFQDNEQLFLGKYLYEIARRHPYFYAPELLYYAQQYKGVFAECCQAADKAACLGPKIEALREKVLLSSAKERFKCASLQKFGDRAFKAWSVARLSQRFPKADFAEISKVVTDLTKVHKECCHGDLLECADDRADLAKYMCENQDSISTKLKECCDKPVLEKSQCLAEVERDELPGDLPSLAADFVEDKEVCKNYQEAKDVFLGTFLYEYARRHPEYSVSLLLRLAKEYEATLEKCCATDDPPTCYAKVLDEFKPLVDEPQNLVKTNCELFEKLGEYGFQNALLVRYTKKAPQVSTPTLVEVSRKLGKVGTKCCKKPESERMSCAEDFLSVVLNRLCVLHEKTPVSERVTKCCSESLVNRRPCFSGLEVDETYVPKEFNAETFTFHADLCTLPEAEKQVKKQTALVELLKHKPKATDEQLKTVMGDFGAFVEKCCAAENKEGCFSEEGPKLVAAAQAALV
notes: also called DSA
B3: Wild type pig serum albumin (ligand)
chain: DTYKSEIAHRFKDLGEQYFKGLVLIAFSQHLQQCPYEEHVKLVREVTEFAKTCVADESAENCDKSIHTLFGDKLCAIPSLREHYGDLADCCEKEEPERNECFLQHKNDNPDIPKLKPDPVALCADFQEDEQKFWGKYLYEIARRHPYFYAPELLYYAIIYKDVFSECCQAADKAACLLPKIEHLREKVLTSAAKQRLKCASIQKFGERAFKAWSLARLSQRFPKADFTEISKIVTDLAKVHKECCHGDLLECADDRADLAKYICENQDTISTKLKECCDKPLLEKSHCIAEAKRDELPADLNPLEHDFVEDKEVCKNYKEAKHVFLGTFLYEYSRRHPDYSVSLLLRIAKIYEATLEDCCAKEDPPACYATVFDKFQPLVDEPKNLIKQNCELFEKLGEYGFQNALIVRYTKKVPQVSTPTLVEVARKLGLVGSRCCKRPEEERLSCAEDYLSLVLNRLCVLHEKTPVSEKVTKCCTESLVNRRPCFSALTPDETYKPKEFVEGTFTFHADLCTLPEDEKQIKKQTALVELLKHKPHATEEQLRTVLGNFAAFVQKCCAAPDHEACFAVEGPKFVIEIRGILA
notes: also called PSA; pig SA
B4: Wild type guinea pig serum albumin (ligand)
chain: EAHKSEIAHRFNDLGEGHFKGLVLITLSQHLQKSPFEEHVKLVNEVTDFAKACVADESAQNCGKAIATLFGDKVCAIPSLRETYGELADCCAKEDPDRVECFLQHKDDNPNLPPFERPEPEALCTAFKENNDRFIGHYLYEVSRRHPYFYAPELLYYAEKYKNALTECCEAADKAACLTPKLDAIKEKALVSSAQQRLKCASLQKFGERAFKAWSVARLSQKFPKAEFAEISTIVTSLTKVTKECCHGDLLECADDRQELAKYMCEHQDSISSKLKECCVKPTLQKAHCILEIQRDELPTELPDLAVDFVEDKEVCKNFAEAKDVFLGTFLYEYSRRHPEYSIGMLLRIAKGYEAKLEKCCAEADPHACYAKVFDELQPLIDEPKKLVQQNCELFDKLGEYGFQNALAVRYTQKAPQVSTPTLVEYARKLGSVGTKCCSLPETERLSCTENYLALILNRLCILHEKTPVSERVTKCCTESLVNRRPCFSALHVDETYVPKPFHADSFTFHADICTLPEKEKQVKKQMALVELVKHKPKASEEQMKTVMGDFAAFLKKCCDADNKEACFTEDGPKLVAKCQATLA
notes: also called GPSA; guinea pig SA
B5: Soluble pig FcRn with pig beta2-microglobulin, HIS-tagged (Example 4) (receptor)
chain: ADNHRSLLYHLTAVSAPTPGAPAFWVSGWLGPQQYLSYNNLRAQAEPYGAWVWESQVSWYWEKETADLRNKQKLFLEALKTLEEGGPFTLQGLLGCELGPDNVSVPVATFALNGEEFMKFDTKLGTWDGEWPEARTIGSKWMQEPDAVNKEKTFLLYSCPHRLLGHLERGRGNLEWKEPPSMRMKARPGTAPGFSVLTCIAFSFYPPELQLRFLRNGLAAGSGESDIGPNGDGSFHAWSSLTVKSGDEHHYCCVVQHAGLAQPLTVEL
b2m: VARPPKVQVYSRHPAENGKPNYLNCYVSGFHPPQIEIDLLKNGEKMNAEQSDLSFSKDWSFYLLVHTEFTPNAVDQYSCRVKHVTLDKPKIVKWDRDH
notes: also called pFcRn; not shown: HIS-tag on the C-terminal of the beta-chain
B6: Soluble guinea pig FcRn with guinea pig beta2-microglobulin, HIS-tagged (receptor)
chain: AENHLSLLYHLTAVSSPATGSPAFWVSGWLGPQQYLSYSSLRREAEPCGAWVWETQVSWYWEMETTDLKNKESLFLEALKALGGKGPYTLQGILGCELSPDNSSVPTALFALNGEDFMEFHPENGSWTGDWPEALSISKQWEKKAEVVSKEKTFLLSSCPQRLLDHLERSRRNLEWKEPPSMRLKARPGDAGFSVLTCSAFSFYPPELQLRFLHNGLAAGTGEGGFGPNGDGSFHAWSSLTVQRGDEHNYRCLVQHAGLPQPLSVELESPAGSS
b2m: VLHAPRVQVYSRHPAENGKQNFINCYVSGFHPPQIEVELLKNGKKIDNVEMSDLSFSKDWTFYLLVHAAFTPNDSDEYSCRVSHITLSEPKIVKWDPNK
notes: Synthesized by GeneArt, expressed in HEK cells; also called gpFcRn; gpFcRN; not shown: HIS-tag on the C-terminal of the beta-chain

How the values were obtained:
[1] = target: T1, Soluble rhesus monkey FcRn, GST-tagged, with human beta2-microglobulin (rhesus monkey; Schistosoma japonicum; …, UniProt P08515 1-218 = GST); experiment: SPR, albumin over immobilized GST-FcRn, pH 6.0, 1:1 model
T1 construct: also called srmFcRn; soluble rhesus macaque FcRn
Method: (§1) SPR experiments were carried out using a Biacore 3000 instrument (GE Healthcare). Flow cells of CM5 sensor chips were coupled with soluble FcRn from one of the following species, human (shFcRn), rat (srFcRn), mouse (smFcRn), rhesus monkey (srmFcRn), dog (dFcRn) or pig (pFcRn) (˜900-2500 resonance units (RU)) using GE Healthcare amine coupling chemistry as per the manufacturer's instructions. The coupling was performed by injecting 2 or 10 μg/ml FcRn in 10 mM sodium acetate pH 5.0 (GE healthcare). Phosphate buffer (67 mM phosphate buffer, 0.15 M NaCl, 0.005% Tween 20) at pH 6.0) was used as running buffer and dilution buffer. Regeneration of the surfaces were done using injections of HBS-EP buffer (0.01 M HEPES, 0.15 M NaCl, 3 mM EDTA, 0.005% surfactant P20) at pH 7.4 (GE Healthcare). For determination of binding kinetics, serial dilutions of albumin (10-0.3 μM) were injected over immobilized receptors at a constant flow rate (50 μl/min) at 25° C. In all experiments, data were zero adjusted and the reference cell subtracted.

[2] = target: T2, Soluble pig FcRn, GST-tagged, with human beta2-microglobulin (Example 2) (pig; Schistosoma japonicum; human, UniProt P08515 1-218 = GST); experiment: as above
T2 construct: also called pFcRn; spFcRn
Method: as §1

[3] = target: T3, Soluble dog FcRn, GST-tagged, with human beta2-microglobulin (dog; Schistosoma japonicum; human, UniProt P08515 1-218 = GST); experiment: as above
T3 construct: also called dFcRn
Method: as §1

[4] = target: T3, Soluble dog FcRn, GST-tagged, with …; experiment: SPR, albumin over immobilized GST-FcRn, pH 6.0, estimated from steady state
Method: as §1

[5] = target: B6; experiment: SPR, albumin over immobilized His-FcRn, pH 5.5, 1:1 Langmuir
Method: as §1
(§2) The SPR assay was conducted with the following variations to the assay described in the Materials and Method section:
(§3) The soluble FcRn receptors were synthesized by GeneArt and expressed in HEK cells. The soluble FcRn contained a HIS-tag on the C-terminal of the Beta-chain instead of a GST on the heavy chain and the beta-chain used was the native beta-chain of the animal (see Materials and Method section for the corresponding sequences). The soluble FcRn was purified by a HIS trap column followed by an additional purification using an IgG column. The soluble FcRn receptor was diluted to 20 μg/mL. The phosphate buffer used as running buffer in the SPR assay was at pH 5.5 instead of pH 6.0. […] 1:1 Langmuir or Steady state model was used.

[6] = target: T4, N-terminally c-myc tagged albumin variant K573P (human, UniProt P02768 25-609); experiment: as above
T4 construct: Substitution numbered on mature HSA, not on the tagged chain; also called c-myc-K573P
T4 sequence (P02768 other isoform, or with tags, fused parts or gaps K573P K573P): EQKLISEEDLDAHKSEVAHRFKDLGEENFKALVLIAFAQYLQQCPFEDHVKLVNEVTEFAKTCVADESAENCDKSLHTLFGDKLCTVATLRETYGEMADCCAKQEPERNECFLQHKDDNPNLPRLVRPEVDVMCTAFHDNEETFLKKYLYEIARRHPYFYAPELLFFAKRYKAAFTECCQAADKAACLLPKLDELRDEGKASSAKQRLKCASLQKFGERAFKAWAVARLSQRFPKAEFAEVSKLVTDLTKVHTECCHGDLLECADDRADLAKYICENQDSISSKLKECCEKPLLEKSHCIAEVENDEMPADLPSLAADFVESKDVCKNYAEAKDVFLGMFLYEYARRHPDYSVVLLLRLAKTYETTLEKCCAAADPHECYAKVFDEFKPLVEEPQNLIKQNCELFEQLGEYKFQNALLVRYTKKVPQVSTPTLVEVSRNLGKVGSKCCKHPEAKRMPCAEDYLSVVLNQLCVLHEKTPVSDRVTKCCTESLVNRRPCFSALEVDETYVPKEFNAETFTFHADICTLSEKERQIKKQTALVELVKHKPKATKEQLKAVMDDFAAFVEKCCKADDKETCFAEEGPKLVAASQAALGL
Method: as §1, §2, §3

[7] = target: T5, HSA K573P (human, UniProt P02768 25-609); experiment: as above
T5 construct: Variant of mature HSA
T5 sequence (P02768 25-609 K597P): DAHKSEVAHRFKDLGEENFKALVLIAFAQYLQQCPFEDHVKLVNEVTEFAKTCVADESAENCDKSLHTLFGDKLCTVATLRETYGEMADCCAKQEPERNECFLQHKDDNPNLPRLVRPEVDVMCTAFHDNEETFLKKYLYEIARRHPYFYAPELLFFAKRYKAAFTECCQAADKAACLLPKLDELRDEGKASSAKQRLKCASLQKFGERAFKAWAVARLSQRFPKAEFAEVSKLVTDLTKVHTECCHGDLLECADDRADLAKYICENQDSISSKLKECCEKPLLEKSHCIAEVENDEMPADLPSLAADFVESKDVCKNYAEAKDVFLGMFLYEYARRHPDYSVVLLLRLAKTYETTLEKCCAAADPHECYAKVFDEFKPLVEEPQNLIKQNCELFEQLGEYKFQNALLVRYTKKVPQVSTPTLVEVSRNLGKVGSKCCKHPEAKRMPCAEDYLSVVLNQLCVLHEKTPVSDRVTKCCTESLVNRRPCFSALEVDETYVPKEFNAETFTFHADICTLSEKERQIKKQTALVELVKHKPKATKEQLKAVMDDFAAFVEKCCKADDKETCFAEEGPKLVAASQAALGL
Method: as §1, §2, §3

[8] = target: T6, Wild type human serum albumin (human, UniProt P02768 25-609); experiment: SPR, albumin over immobilized His-FcRn, pH 5.5, steady state
T6 construct: also called HSA; HSA Wt
T6 sequence (P02768 25-609): as the sequence (P02768 25-609 K597P) above, with P573K counted along it
Method: as §1, §2, §3

[9] = target: B3; experiment: as above
Method: as §1, §2, §3

[10] = target: T7, N-terminally c-myc tagged Wt HSA (human, UniProt P02768 25-609); experiment: as above
T7 construct: Secreted from yeast; a +2058 Da miscleaved leader species was reduced to below 5%; also called c-myc-HSA Wt; Cmyc-WT HSA
T7 sequence (P02768 other isoform, or with tags, fused parts or gaps): as the sequence (P02768 other isoform, or with tags, fused parts or gaps K573P K573P) above, with P583K counted along it
Method: as §1, §2, §3

Binder	Kd [2] [nM]	koff [2] [s⁻¹]	kon [2] [M⁻¹ s⁻¹]	Kd [3] [nM]	koff [3] [s⁻¹]	kon [3] [M⁻¹ s⁻¹]	Kd [6] [nM]	koff [6] [s⁻¹]	kon [6] [M⁻¹ s⁻¹]	Kd [7] [nM]	koff [7] [s⁻¹]	kon [7] [M⁻¹ s⁻¹]	further results
B1	1200	0.012	10000	1540	0.02	13000	–	–	–	–	–	–	Kd [1]: 2400 nM; koff [1]: 0.013 s⁻¹; kon [1]: 5300 M⁻¹ s⁻¹
B2	1400	0.013	9200	280	0.0034	12000	–	–	–	–	–	–	–
B3	2700	0.053	20000	–	–	–	–	–	–	–	–	–	Kd [4]: 23000 nM
B4	–	–	–	–	–	–	–	–	–	–	–	–	Kd [5]: 1100 nM; koff [5]: 0.0419 s⁻¹; kon [5]: 36200 M⁻¹ s⁻¹
B5	–	–	–	–	–	–	1300	0.0401	31200	1900	0.0622	32700	Kd [8]: 232000 nM; Kd [9]: 210000 nM; Kd [10]: 468000 nM
B6	–	–	–	–	–	–	360000	0.181	500	190000	0.297	1500	–
